Where no end group is shown, it is not given here.

B1: libC phage-displayed peptide KVASWTMFWV (peptide)
chain: KVASWTMFWV
modifications: not fully specified
notes: 42 siblings; not shown: M13 gene-8 major coat protein (P8)
B2: libC phage-displayed peptide SEQ ID NO:27 (peptide)
chain: PGRWGPFFWV
modifications: not fully specified
notes: not shown: M13 gene-8 major coat protein (P8)
B3: libC phage-displayed peptide SEQ ID NO:32 (peptide)
chain: YPTYWTFWWV
modifications: not fully specified
notes: as for B2
B4: libC phage-displayed peptide SEQ ID NO:43 (peptide)
chain: GLMPLLFFWV
modifications: not fully specified (N-terminus)
notes: as for B2
B5: libC phage-displayed peptide SEQ ID NO:31 (peptide)
chain: DRLNWLFFWI
modifications: not fully specified
notes: as for B2
B6: libC phage-displayed peptide SEQ ID NO:29 (peptide)
chain: NQRVWIFWLI
modifications: not fully specified
notes: as for B2
B7: libN phage-displayed peptide GIAGFWWDG (peptide)
chain: GIAGFWWDG
modifications: not fully specified (C-terminus)
notes: 9 siblings; not shown: M13 gene-8 major coat protein (P8)
B8: libN phage-displayed peptide SEQ ID NO:56 (peptide)
chain: WIAGFWWDG
modifications: not fully specified (C-terminus)
notes: as for B2
B9: libC phage-displayed peptide WLDRFPHFWV (peptide)
chain: WLDRFPHFWV
modifications: not fully specified (N-terminus)
notes: 15 siblings; not shown: M13 gene-8 major coat protein (P8)
B10: libC phage-displayed peptide SEQ ID NO:33 (peptide)
chain: LYSIYRFFWA
modifications: not fully specified
notes: as for B2
B11: libN phage-displayed peptide SEQ ID NO:55 (peptide)
chain: GIVWFWWDG
modifications: not fully specified (C-terminus)
notes: as for B2
B12: libN phage-displayed peptide SEQ ID NO:52 (peptide)
chain: STDYWWGCG
modifications: not fully specified (C-terminus)
notes: as for B2
B13: libN phage-displayed peptide SEQ ID NO:54 (peptide)
chain: SSDYWWGCG
modifications: not fully specified (C-terminus)
notes: as for B2
B14: libC phage-displayed peptide SEQ ID NO:46 (peptide)
chain: IPLHWIFYLV
modifications: not fully specified (N-terminus)
notes: as for B2
B15: libC phage-displayed peptide SEQ ID NO:39 (peptide)
chain: RIPFLFFLWA
modifications: not fully specified (N-terminus)
notes: as for B2
B16: libN phage-displayed peptide GGFWWGPAG (peptide)
chain: GGFWWGPAG
modifications: not fully specified (C-terminus)
notes: 5 siblings; not shown: M13 gene-8 major coat protein (P8)
B17: libN phage-displayed peptide SEQ ID NO:50 (peptide)
chain: ATEFWWGVG
modifications: not fully specified (C-terminus)
notes: 10 siblings; not shown: M13 gene-8 major coat protein (P8)
B18: libC phage-displayed peptide SEQ ID NO:36 (peptide)
chain: TMSDWLFWWA
modifications: not fully specified (N-terminus)
notes: as for B2
B19: libC phage-displayed peptide SEQ ID NO:28 (peptide)
chain: DSLLFDFWWA
modifications: not fully specified
notes: as for B2
B20: libN phage-displayed peptide SEQ ID NO:53 (peptide)
chain: GDIVCTWGG
modifications: not fully specified (C-terminus)
notes: as for B2
B21: libC phage-displayed peptide SEQ ID NO:45 (peptide)
chain: WVDSCPIFWV
modifications: not fully specified (N-terminus)
notes: as for B2
B22: libC phage-displayed peptide SEQ ID NO:35 (peptide)
chain: SFYILRYFWV
modifications: not fully specified
notes: as for B2
B23: libN phage-displayed peptide ESLWWGWEG (peptide)
chain: ESLWWGWEG
modifications: not fully specified (C-terminus)
notes: 7 siblings; not shown: M13 gene-8 major coat protein (P8)
B24: libC phage-displayed peptide SEQ ID NO:34 (peptide)
chain: FLGFLEFFWI
modifications: not fully specified
notes: as for B2
B25: libN phage-displayed peptide WEWIGMEWG (peptide)
chain: WEWIGMEWG
modifications: not fully specified (C-terminus)
notes: 31 siblings; not shown: M13 gene-8 major coat protein (P8)
B26: libN phage-displayed peptide SEQ ID NO:51 (peptide)
chain: WGYWWGPGG
modifications: not fully specified (C-terminus)
notes: as for B2
B27: libN phage-displayed peptide AGDSWWWGG (peptide)
chain: AGDSWWWGG
modifications: not fully specified (C-terminus)
notes: 4 siblings; not shown: M13 gene-8 major coat protein (P8)
B28: libN phage-displayed peptide SEQ ID NO:49 (peptide)
chain: SHWWGGWLG
modifications: not fully specified (C-terminus)
notes: 17 siblings; not shown: M13 gene-8 major coat protein (P8)
B29: libC phage-displayed peptide SEQ ID NO:38 (peptide)
chain: TRANWLFFWV
modifications: not fully specified (N-terminus)
notes: as for B2
B30: libC phage-displayed peptide SEQ ID NO:41 (peptide)
chain: TGMSWTIWFL
modifications: not fully specified (N-terminus)
notes: as for B2
B31: libC phage-displayed peptide SEQ ID NO:44 (peptide)
chain: TVHSWFLWFV
modifications: not fully specified (N-terminus)
notes: as for B2
B32: libC phage-displayed peptide SEQ ID NO:42 (peptide)
chain: SLLNWVLYLV
modifications: not fully specified (N-terminus)
notes: as for B2
B33: libC phage-displayed peptide SEQ ID NO:40 (peptide)
chain: SKLRLFFMWV
modifications: not fully specified (N-terminus)
notes: as for B2
B34: libC phage-displayed peptide SEQ ID NO:30 (peptide)
chain: SSFFRFWFV
modifications: not fully specified
notes: as for B2

The target of this experiment is T1, GST-Omi PDZ fusion protein (human, UniProt O43464 359-458).
T1 construct: also called GST-hOmiPDZ; hOmi PDZ domain; not shown: glutathione S-transferase (GST) encoded by plasmid pGEX6P-3
T1 sequence: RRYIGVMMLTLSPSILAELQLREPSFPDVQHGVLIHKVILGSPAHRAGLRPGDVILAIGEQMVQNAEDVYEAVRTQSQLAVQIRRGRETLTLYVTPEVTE
Kind of experiment: phage ELISA on GST-Omi PDZ after three rounds of selection. The method, then:
Selection for Omi PDZ peptides—Previously described procedures were used to isolate peptides that bound to a GST-Omi PDZ fusion, using libraries of random decapeptides fused to either the C terminus(18) or octapeptide fused to the N terminus(19) of the M13 gene-8 major coat protein, designated as libC or libN, respectively. After three rounds of selection, individual clones were grown in a 96-well format in 500 μL of 2YT broth supplemented with carbenicillin, kanamycin and KO7, and the culture supernatants were used directly in phage ELISAs(19) to detect peptides that bound specifically to Omi PDZ. Peptide sequences derived from positive clones were aligned and tabulated. A total of 95 positive colonies from libC and 89 from libN were analyzed. (see Table II). […] The sequences were selected after three rounds of sorting with IPTG induction. Hydrophobic residues (A, F, I, L, M, V, W, Y) are italicized and bolded, n is the number of siblings.
In the case of B1, the binding result is “binds”. As for B2, the binding result was “binds”.

Turning to B3, the binding result is “binds”.

B4: the binding result was “binds”.

In the case of B5, the binding result is “binds”.

For the molecule B6, the binding result is “binds”.

As for B7, the binding result is reported as “binds”. Regarding B8, the binding result is reported as “binds”.

Regarding B9, the binding result is listed as “binds”. For the molecule B10, the binding result is reported as “binds”. For B11 the value was “binds”. Regarding B12, the binding result is reported as “binds”.

B13: the binding result was “binds”. For B14 the value was “binds”; for B15, “binds”; for B16, “binds”.

Turning to B17, the binding result was “binds”. B18: the binding result was “binds”.

Turning to B19, the binding result was “binds”. For B20 the value was “binds”; for B21, “binds”; for B22, “binds”. B23: the binding result is given as “binds”. On to B24, for which the binding result is recorded as “binds”. For B25 the value was “binds”; for B26, “binds”. The same measure for B27: “binds”; for B28: “binds”; for B29: “binds”. Turning to B30, the binding result is listed as “binds”. Regarding B31, the binding result is “binds”. For B32 the value was “binds”; for B33, “binds”; for B34, “binds”.
